# T1: human alpha-2-antiplasmin (human, UniProt P08697, 125I label in the radioimmunoassays of Example 1; biotin in the competition assay of Example 5; unlabelled in the ELISA, plasmin and clot lysis assays)
# T1 sequence: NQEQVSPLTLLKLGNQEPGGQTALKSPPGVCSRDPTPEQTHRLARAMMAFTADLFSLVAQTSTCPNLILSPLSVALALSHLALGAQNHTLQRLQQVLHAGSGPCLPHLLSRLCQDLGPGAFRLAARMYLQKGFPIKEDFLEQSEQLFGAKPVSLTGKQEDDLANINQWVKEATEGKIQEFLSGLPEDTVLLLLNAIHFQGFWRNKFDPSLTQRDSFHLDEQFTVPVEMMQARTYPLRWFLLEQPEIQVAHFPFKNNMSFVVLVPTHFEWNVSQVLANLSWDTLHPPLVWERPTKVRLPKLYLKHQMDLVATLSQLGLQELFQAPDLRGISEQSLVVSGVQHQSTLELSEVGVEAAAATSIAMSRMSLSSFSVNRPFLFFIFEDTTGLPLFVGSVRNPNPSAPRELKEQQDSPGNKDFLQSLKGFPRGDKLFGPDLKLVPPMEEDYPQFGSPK
# B1: h77A3-2 (humanized 77A3) (antibody, V domains shown)
# VH: QIQLVQSGAEVKKPGASVKISCKASGYTFTNYGMNWVRQAPGQGLEWMGWINTKSGEPTYAEEFKGRFTFTLDTSTSTAYLEIRSLRSDDTAVYFCARW
# VL: DIQMTQSPSSLSASVGDRVTITCRASGNIHNYLAWYQQKQGKSPQLLVYNAKTLASGVPSRFSGSGSGTDFTLTISSLQPEDFGSHY
# B2: h77A3-1 (humanized 77A3) (antibody, V domains shown)
# VH: QIQLVQSGSELKKPGASVKISCKASGYTFTNYGMNWVRQAPGQGLEWMGWINTKSGEPTYAEEFKGRFVFSLDTSVTTAYLQISSLKAEDTAVYFCARWVPGTYAMDYWGQGTTVTVSS
# VL: DIQMTQSPSSLSASVGDRVTITCRASGNIHNYLAWYQQKQGKSPQLLVYNAKTLASGVPSRFSGSGSGTDFTLTISSLQPEDFGSHYCQHFWTTPWTFGGGTKLEIK
# Legend:
# [1] = molecular target: T1, human alpha-2-antiplasmin
# [2] = molecular target: T1, human alpha-2-antiplasmin; experiment: ELISA: plates coated with α2-antiplasmin (American Diagnostica), anti-human kappa conjugate
Binder,plasmin assay with chromogenic substrate: loss in activity [1],binding result [2]
B1,20 to 30%,
B2,,binds
